Test results as given in US20180346602A1.

Tests used:
[1] = target: anti-VEGF/ANG2 antibody (IgG1 subclass with mutations P329G/L234A/L235A/I253A/H310A/H435A) [IgG part: P01857]; assay: sandwich ELISA assay A; capture M1.7.10-Bi; antibody 1 at 6 ng/mL
[2] = target: anti-IGF-1R antibody (IgG1 subclass with mutations I253A/H310A/H435A) [IgG part: P01857]; assay: sandwich ELISA assay A; capture M1.7.10-Bi; antibody 3 at 3 ng/mL
[3] = target: anti-IGF-1R antibody (IgG1 subclass with mutations I253A/H310A/H435A) [IgG part: P01857]; assay: sandwich ELISA assay A; capture M1.7.10-Bi; antibody 3 at 6 ng/mL
[4] = target: anti-VEGF/ANG2 antibody (wild-type IgG1 subclass) [IgG part: P01857]; assay: sandwich ELISA assay A; capture M1.7.10-Bi; antibody 5 at 6 ng/mL
[5] = target: anti-VEGF/ANG2 antibody (IgG1 subclass with mutations P329G/L234A/L235A/I253A/H310A/H435A) [IgG part: P01857]; assay: sandwich ELISA assay A; capture M1.7.10-Bi; antibody 1 at 50 ng/mL
[6] = target: anti-VEGF/ANG2 antibody (IgG1 subclass with mutations P329G/L234A/L235A/I253A/H310A/H435A) [IgG part: P01857]; assay: sandwich ELISA assay A; capture M1.7.10-Bi; antibody 1 at 100 ng/mL
[7] = target: anti-IGF-1R antibody (IgG1 subclass with mutations I253A/H310A/H435A) [IgG part: P01857]; assay: sandwich ELISA assay A; capture M1.7.10-Bi; antibody 3 at 100 ng/mL
[8] = target: anti-VEGF/ANG2 antibody (wild-type IgG1 subclass) [IgG part: P01857]; assay: sandwich ELISA assay A; capture M1.7.10-Bi; antibody 5 at 100 ng/mL
[9] = target: anti-VEGF/ANG2 antibody (wild-type IgG1 subclass) [IgG part: P01857]; assay: sandwich ELISA assay A; capture M1.7.10-Bi; antibody 5 at 0 ng/mL (blank)
[10] = target: anti-IGF-1R antibody (IgG1 subclass with mutations I253A/H310A/H435A) (human) [IgG part: P01857]; assay: sandwich ELISA assay B; capture on SA plate; tracer M1.7.10-Dig; analyte 3 ng/mL
[11] = target: anti-P-Selectin antibody (IgG4 subclass with mutations S228P/L235E) (human) [IgG part: P01861]; assay: as above
[12] = target: anti-VEGF/ANG2 antibody (IgG1 subclass with mutations P329G/L234A/L235A) (human) [IgG part: P01857]; assay: as above
[13] = target: anti-VEGF/ANG2 antibody (IgG1 subclass with mutations P329G/L234A/L235A/I253A/H310A/H435A) (human) [IgG part: P01857]; assay: as above
[14] = target: anti-IGF-1R antibody (IgG1 subclass with mutations I253A/H310A/H435A) (human) [IgG part: P01857]; assay: sandwich ELISA assay B; capture on SA plate; tracer M1.7.10-Dig; analyte 25 ng/mL
[15] = target: anti-P-Selectin antibody (IgG4 subclass with mutations S228P/L235E) (human) [IgG part: P01861]; assay: as above
[16] = target: anti-VEGF/ANG2 antibody (IgG1 subclass with mutations P329G/L234A/L235A) (human) [IgG part: P01857]; assay: as above
[17] = target: anti-VEGF/ANG2 antibody (IgG1 subclass with mutations P329G/L234A/L235A/I253A/H310A/H435A) (human) [IgG part: P01857]; assay: as above
[18] = target: anti-IGF-1R antibody (IgG1 subclass with mutations I253A/H310A/H435A) (human) [IgG part: P01857]; assay: sandwich ELISA assay B; capture on SA plate; tracer M1.7.10-Dig; analyte 50 ng/mL
[19] = target: anti-P-Selectin antibody (IgG4 subclass with mutations S228P/L235E) (human) [IgG part: P01861]; assay: as above
[20] = target: anti-VEGF/ANG2 antibody (IgG1 subclass with mutations P329G/L234A/L235A) (human) [IgG part: P01857]; assay: as above
[21] = target: anti-VEGF/ANG2 antibody (IgG1 subclass with mutations P329G/L234A/L235A/I253A/H310A/H435A) (human) [IgG part: P01857]; assay: as above
[22] = target: anti-IGF-1R antibody (IgG1 subclass with mutations I253A/H310A/H435A) (human) [IgG part: P01857]; assay: sandwich ELISA assay B; capture on SA plate; tracer M1.7.10-Dig; analyte 100 ng/mL
[23] = target: anti-P-Selectin antibody (IgG4 subclass with mutations S228P/L235E) (human) [IgG part: P01861]; assay: as above
[24] = target: anti-VEGF/ANG2 antibody (IgG1 subclass with mutations P329G/L234A/L235A) (human) [IgG part: P01857]; assay: as above
[25] = target: anti-VEGF/ANG2 antibody (IgG1 subclass with mutations P329G/L234A/L235A/I253A/H310A/H435A) (human) [IgG part: P01857]; assay: as above

B1: anti-variant (human) Fc-region antibody M1.3.17 (antibody, V domains shown)
VH: EVKLLESGGGLVQPGGSLKLSCAASGIDFRRYWMNWVRQAPGKGLEWIGEIDPDSSTINYTPSLKDKFIISRDNAKNTMYLQMRKVRSEDTALYYCARPYDYGAWFAYWGQGTLVTVSA
VL: QAVVTQESALTTSPGETVTLTCRSTTGAVTTSNYANWVQEKPDHLFTGLIGGTNKRAPGVPARFSGSLIGDKAALTITGAQTEDEAIYFCALWYSDHWVFGGGTKLTVL
signal [OD405 nm] [1]: 0.042 OD405 nm | signal [OD405 nm] [2]: 0.036 OD405 nm | signal [OD405 nm] [3]: 0.038 OD405 nm | signal [OD405 nm] [4]: 0.036 OD405 nm | signal [OD405 nm] [5]: 0.043 OD405 nm | signal [OD405 nm] [6]: 0.043 OD405 nm | signal [OD405 nm] [7]: 0.047 OD405 nm | signal [OD405 nm] [8]: 0.042 OD405 nm | signal [OD405 nm] [9]: 0.036 OD405 nm | signal [OD405 nm] [10]: 0.047 OD405 nm | signal [OD405 nm] [11]: 0.05 OD405 nm | signal [OD405 nm] [12]: 0.165 OD405 nm | signal [OD405 nm] [13]: 0.036 OD405 nm | signal [OD405 nm] [14]: 0.046 OD405 nm | signal [OD405 nm] [15]: 0.047 OD405 nm | signal [OD405 nm] [16]: 0.213 OD405 nm | signal [OD405 nm] [17]: 0.035 OD405 nm | signal [OD405 nm] [18]: 0.048 OD405 nm | signal [OD405 nm] [19]: 0.049 OD405 nm | signal [OD405 nm] [20]: 0.215 OD405 nm | signal [OD405 nm] [21]: 0.035 OD405 nm | signal [OD405 nm] [22]: 0.05 OD405 nm | signal [OD405 nm] [23]: 0.048 OD405 nm | signal [OD405 nm] [24]: 0.216 OD405 nm | signal [OD405 nm] [25]: 0.035 OD405 nm

B2: anti-variant (human) Fc-region antibody M1.7.24 (antibody, V domains shown)
VH: EVKLLESGGGLVQPGGSLKLSCAASGFDFSRYWMNWVRQAPGKGLEWIGEITPDSSTINYTPSLKDKFIISRDNAKNTLYLQMIKVRSEDTALYYCVRPYDYGAWFASWGQGTLVTVSA
VL: QAVVTQESALTTSPGETVTLTCRSSTGAVTTSNYANWVQEKPDHLFTGLIGGTNKRAPGVPARFSGSLIGDKAALTITGAQTEDEAIYFCALWYSNHWVFGGGTKLTVL
signal [OD405 nm] [1]: 0.045 OD405 nm | signal [OD405 nm] [2]: 0.045 OD405 nm | signal [OD405 nm] [3]: 0.042 OD405 nm | signal [OD405 nm] [4]: 0.042 OD405 nm | signal [OD405 nm] [5]: 0.051 OD405 nm | signal [OD405 nm] [6]: 0.053 OD405 nm | signal [OD405 nm] [7]: 0.06 OD405 nm | signal [OD405 nm] [8]: 0.042 OD405 nm | signal [OD405 nm] [9]: 0.041 OD405 nm | signal [OD405 nm] [10]: 0.046 OD405 nm | signal [OD405 nm] [11]: 0.031 OD405 nm | signal [OD405 nm] [12]: 2.51 OD405 nm | signal [OD405 nm] [13]: 0.04 OD405 nm | signal [OD405 nm] [14]: 0.048 OD405 nm | signal [OD405 nm] [15]: 0.04 OD405 nm | signal [OD405 nm] [16]: 3.16 OD405 nm | signal [OD405 nm] [17]: 0.047 OD405 nm | signal [OD405 nm] [18]: 0.064 OD405 nm | signal [OD405 nm] [19]: 0.043 OD405 nm | signal [OD405 nm] [20]: 3.17 OD405 nm | signal [OD405 nm] [21]: 0.06 OD405 nm | signal [OD405 nm] [22]: 0.098 OD405 nm | signal [OD405 nm] [23]: 0.05 OD405 nm | signal [OD405 nm] [24]: 3.23 OD405 nm | signal [OD405 nm] [25]: 0.057 OD405 nm

B3: anti-AAA variant Fc-region antibody M1.6.22 (antibody, V domains shown)
VH: EVQLVESGGDLVKPGGSLKLSCAASGFTFSSYGMSWVRQTPDKRLEWVATISSGGSYIYYPDSVKGRFTISRDNAKNTLYLQMSSLKSEDTAMYYCARLGMITTGYAMDYWGQGTSVTVSS
VL: DVLMTQTPLSLPVSLGDQASISCRSSQTIVHSTGHTYLEWFLQKPGQSPKLLIYKVSNRFSGVPDRFSGSGSGTDFTLKISRVEAEDLGVYYCFQGSHVPYTFGGGTKLEIK
signal [OD405 nm] [1]: 0.057 OD405 nm | signal [OD405 nm] [2]: 0.414 OD405 nm | signal [OD405 nm] [3]: 0.858 OD405 nm | signal [OD405 nm] [4]: 0.046 OD405 nm | signal [OD405 nm] [5]: 0.06 OD405 nm | signal [OD405 nm] [6]: 0.059 OD405 nm | signal [OD405 nm] [7]: 2.89 OD405 nm | signal [OD405 nm] [8]: 0.056 OD405 nm | signal [OD405 nm] [9]: 0.042 OD405 nm | signal [OD405 nm] [10]: 2.26 OD405 nm | signal [OD405 nm] [11]: 0.039 OD405 nm | signal [OD405 nm] [12]: 0.044 OD405 nm | signal [OD405 nm] [13]: 0.039 OD405 nm | signal [OD405 nm] [14]: 2.89 OD405 nm | signal [OD405 nm] [15]: 0.048 OD405 nm | signal [OD405 nm] [16]: 0.092 OD405 nm | signal [OD405 nm] [17]: 0.044 OD405 nm | signal [OD405 nm] [18]: 2.9 OD405 nm | signal [OD405 nm] [19]: 0.047 OD405 nm | signal [OD405 nm] [20]: 0.127 OD405 nm | signal [OD405 nm] [21]: 0.05 OD405 nm | signal [OD405 nm] [22]: 2.9 OD405 nm | signal [OD405 nm] [23]: 0.051 OD405 nm | signal [OD405 nm] [24]: 0.21 OD405 nm | signal [OD405 nm] [25]: 0.052 OD405 nm
